From publication PMC12802955

Molecular target: H234A mutant of SARS-CoV-2 nsp15 with an N-terminal Strep-Tag II (SARS-CoV-2)
Experiment: cryo-EM structure

With “H234A mutant of SARS-CoV-2 nsp15 with an N-terminal Strep-Tag II (enzyme)” the stoichiometry N was 6.
